Experimental findings from the supplement of paper PMC12764529 are described below.

± gives the half width of the 95% confidence interval.

Series [1] can be described thus: folding stability dG unfold from trypsin proteolysis; higher = more stable. The procedure, abridged:
(§1)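 Unfolding free energy was derived, per protease or combined, against a sequence-predicted unfolded-state K50 and a shared folded-state K50, starting from K50 inferred by Bayesian fitting of sequencing counts. Digestion with trypsin and chymotrypsin was carried out on designed mini-proteins under 80 residues without cysteine in a PA-tagged cDNA display construct. Only designs with AlphaFold2 dimer inter-PAE above 15 were kept.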

The nature of series [2]: folding stability dG unfold (combined trypsin and chymotrypsin); higher = more stable. The procedure, abridged: as §1
Series [3] in a line: folding stability dG unfold from chymotrypsin proteolysis; higher = more stable. The procedure, abridged: as §1

Consider “SAGGSAGGSAGKLEVVELEDGYLVVYDPETGLIVLYTPEEVVAELLDAFDPDKPVVVVEFSAGGSAGGSAGG [r11_374_TrMRF]”, for which the entries for the “folding stability dG unfold” value in series [1], in series [2] and in series [3] were 1.46 ± 0.091 kcal/mol, 1.17 ± 0.11 kcal/mol and 0.689 ± 0.064 kcal/mol, respectively.
On to “SAGGSAGGSAGKLKIKSVITFESEDDLIVKLIEVDDKVFAIVLDPKTGKPVKIIPDNEIFSAGGSAGGSAGG [r11_851_TrMRF]”, for which the “folding stability dG unfold” value in series [1] was found to be 0.0652 ± 0.13 kcal/mol; in series [2] it was 0.873 ± 0.18 kcal/mol; in series [3], 1.2 ± 0.13 kcal/mol.
“SAGGSAGGSAGKLVVVRAIDPENPFVVATTSDNRTYVFDSLEELLEQVPEGVPVLFLPTVSAGGSAGGSAGG [r17_295_TrMRF]”: the “folding stability dG unfold” value in series [1] came out at 0.369 ± 0.028 kcal/mol; in series [2], 0.933 ± 0.081 kcal/mol; in series [3], 1.22 ± 0.071 kcal/mol.
For “SAGGSAGGSAGKMYKAKVKIGNKEYEAYIEENVPEDGTITVKFDDKTIEIKAENIEVYDESAGGSAGGSAGG [r11_247_TrMRF]” the same measures were 0.905 ± 0.031 kcal/mol, 1.15 ± 0.067 kcal/mol and 1.32 ± 0.11 kcal/mol.
On the same counts, the results for “SAGGSAGGSAGKNMVEIEMMFVLPDGWFIKTSLRINPDKPGRIHEVEIEIRKIPPNDEQISAGGSAGGSAGG [r17_299_TrROS]” are 3.51 ± 0.24 kcal/mol, 4.06 ± 0.19 kcal/mol and 4.31 ± 0.17 kcal/mol.
On the same counts, the results for “SAGGSAGGSAGKNPDGQPAPTIEIEPRTRELPDNGYKITIMRIRFPDSGVEFPMIMISPPSAGGSAGGSAGG [r17_31_TrROS]” are 0.833 ± 0.072 kcal/mol, 1.29 ± 0.1 kcal/mol and 1.51 ± 0.091 kcal/mol.
In the case of “SAGGSAGGSAGKPEVKVEAEVEPYPETDLVVVNVRVYVDGVPVEIPFVVPPSVAEAFLKASAGGSAGGSAGG [r11_700_TrMRF]”, the “folding stability dG unfold” value in series [1] worked out at 1.08 ± 0.03 kcal/mol; in series [2] it was 1.16 ± 0.048 kcal/mol; in series [3], 1.26 ± 0.024 kcal/mol.
In the case of “SAGGSAGGSAGKPIKLEEVLEKLNPEKIESVFVFPPIPYVVVLLKDSNGNKKIIVVKEDKSAGGSAGGSAGG [r17_374_TrMRF]”, the “folding stability dG unfold” value in series [1] turned out to be 0.695 ± 0.019 kcal/mol; in series [2], 0.837 ± 0.13 kcal/mol; in series [3] it was 0.922 ± 0.21 kcal/mol.
For “SAGGSAGGSAGKPIPYRITLETETTRAVFTIPADVPLEKVVEIAREIRELYPAPFSIEPSSAGGSAGGSAGG [r11_515_TrMRF]” the same measures were 0.14 ± 0.21 kcal/mol, 0.197 ± 0.21 kcal/mol and -0.00667 ± 0.43 kcal/mol.
For “SAGGSAGGSAGKPKEIFVFDKEIDADEAVALLPDEVKEVVVFDIEEAREKGGILIKAVVDSAGGSAGGSAGG [r11_1002_TrMRF]” the same measures were -1.18 ± 0.61 kcal/mol, 0.54 ± 0.14 kcal/mol and 0.898 ± 0.1 kcal/mol.
On to “SAGGSAGGSAGKPKIKIEEIIEIEVITKKKIPETGKEKETPEKLYIIKVKVENIPPNLKVSAGGSAGGSAGG [r17_530_TrMRF]”, for which the “folding stability dG unfold” value in series [1] worked out at 0.466 ± 0.11 kcal/mol; in series [2] it was 1.38 ± 0.25 kcal/mol; in series [3], 2.11 ± 0.06 kcal/mol.
On to “SAGGSAGGSAGKPKVRLKLRLTVRVTTLNEDGSLEETEVELELEVELPEVRLPSLEELLKSAGGSAGGSAGG [r11_285_TrROS_Hall]”, for which the “folding stability dG unfold” value came out at 3.22 ± 0.23 kcal/mol in series [1], 3.07 ± 0.41 kcal/mol in series [2] and 2.92 ± 0.24 kcal/mol in series [3].
Take “SAGGSAGGSAGKPKVYVKPIVKKGDYVLYLSYYPEEKKIELWVDKFGDKPKRFVKEYPLESAGGSAGGSAGG [r11_738_TrMRF]”: the results for the “folding stability dG unfold” value in series [1], in series [2] and in series [3] were 0.866 ± 0.043 kcal/mol, 1.13 ± 0.068 kcal/mol and 1.25 ± 0.07 kcal/mol, respectively.
Take “SAGGSAGGSAGKPSVTILVLTDSPEDALALAKPLLEAGYEVKLELFRLPDDRYLALITVPSAGGSAGGSAGG [r11_677_TrMRF]”: the “folding stability dG unfold” value was determined as 2.13 ± 0.041 kcal/mol in series [1], 2.92 ± 0.094 kcal/mol in series [2] and 3.36 ± 0.039 kcal/mol in series [3].
On the same counts, the results for “SAGGSAGGSAGKPVLTLTLRLEDGTLVRIEFDLETEELTVRVLDLETGEEKEFTFKLPAPSAGGSAGGSAGG [r11_931_TrROS_Hall]” are 3.51 ± 0.22 kcal/mol, 3.9 ± 0.14 kcal/mol and 4.07 ± 0.074 kcal/mol.
Take “SAGGSAGGSAGKRYTFFIPVPPDEMTPEDLVDWIEKIFPDFKGKEIKVEVMPDGYVRIKIEYSAGGSAGGSA [r18_65_TrROS]”: the “folding stability dG unfold” value in series [1] was 3.08 ± 0.069 kcal/mol; in series [2] it was 3.56 ± 0.097 kcal/mol; in series [3], 3.89 ± 0.044 kcal/mol.
For the sequence “SAGGSAGGSAGKTYEIVEYNPETKKFLIRFEDGSTKEVEVKPGDKIEVPPGAKVEIVPLDSAGGSAGGSAGG [r17_295_TrROS_Hall]”, the “folding stability dG unfold” value is 1.94 ± 0.069 kcal/mol in series [1], 1.88 ± 0.14 kcal/mol in series [2] and 1.76 ± 0.1 kcal/mol in series [3].
With “SAGGSAGGSAGKVEITVEKNPETGLYTVRIKTEDGKEIEITVPKNMTLEELKKLAEELLKSAGGSAGGSAGG [r17_161_TrROS_Hall]”, the “folding stability dG unfold” value is 4.43 ± 0.22 kcal/mol in series [1], 4.42 ± 0.1 kcal/mol in series [2] and 4.42 ± 0.11 kcal/mol in series [3].
